In patent US20060019324A1:

Legend:
[1] = target: PknB1-279 (His-tagged catalytic kinase core of the Ser/Thr protein kinase PknB, Rv0014c, aa 1-279) (Mycobacterium tuberculosis) (UniProt P9WI81); test: cell-based or functional assay
[2] = target: T1, PknB1-279 (His-tagged catalytic kinase core of the Ser/Thr protein kinase PknB, Rv0014c, aa 1-279), P9WI81
T1 chain: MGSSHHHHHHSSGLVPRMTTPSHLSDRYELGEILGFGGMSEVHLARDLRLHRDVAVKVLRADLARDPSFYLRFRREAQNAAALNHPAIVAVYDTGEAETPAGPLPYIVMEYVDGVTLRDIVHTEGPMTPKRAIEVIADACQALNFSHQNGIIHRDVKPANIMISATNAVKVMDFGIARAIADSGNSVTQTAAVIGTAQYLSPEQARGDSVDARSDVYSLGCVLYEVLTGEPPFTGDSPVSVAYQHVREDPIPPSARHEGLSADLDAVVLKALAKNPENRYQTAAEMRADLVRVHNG

PstP1-240 (His-tagged catalytic domain of the Ser/Thr protein phosphatase PstP, Rv0018c, aa 1-240) (from UniProt P9WHW5 1-240) (enzyme)
MALDI-TOF mass of PknB1-279 after treatment with PstP or alkaline phosphatase: phosphate groups removed (phosphate groups) [1]: 3

B1: PstP1-240 (His-tagged catalytic domain of the Ser/Thr protein phosphatase PstP, Rv0018c, aa 1-240) (protein)
chain: MARVTLVLRYAARSDRGLVRANNEDSVYAGARLLALADGMGGHAAGEVASQLVIAALAHLDDDEPGGDLLAKLDAAVRAGNSAIAAQVEMEPDLEGMGTTLTAILFAGNRLGLVHIGDSRGYLLRDGELTQITKDDTFVQTLVDEGRITPEEAHSHPQRSLIMRALTGHEVEPTLTMREARAGDRYLLCSDGLSDPVSDETILEALQIPEVAESAHRLIELALRGGGPDNVTVVVADVVD
dephosphorylation of [33P]-autophosphorylated PknB1-279 by PstP, SDS-PAGE and autoradiography, with or without MnCl2 [2]: PstP is capable of dephosphorylating PknB
kinase activity of PknB on MBP (thio-γATP) after preincubation with PstP [2]: prior dephosphorylation of PknB by PstP inhibits kinase activity on MBP
